In series [1] the test system is T1, O=[N+]([O-])c1ccc(O[C@@H]2O[C@H](CO)[C@@H](O)[C@H](O)[C@H]2O)cc1.
T1 construct: E. coli LMG194; monomer
In words: purified protein. The format is biochemical, uncultured bacterium. The settings on record: 20 mM phosphate buffer, 20°C, substrate 1.0-5.0 mM.

In series [2] the test system is T2, O=[N+]([O-])c1ccccc1O[C@@H]1O[C@H](CO)[C@H](O)[C@H](O)[C@H]1O.
T2 construct: E. coli LMG194; monomer
In words: purified protein. Format: biochemical, uncultured bacterium. The settings on record: 20 mM phosphate buffer, 20°C, substrate 1.0-5.0 mM.

The Km is the substrate concentration at which the rate is half of its maximum. The kcat is the number of substrate molecules converted per active site and unit of time at saturation. Usually kcat/Km stands for the turnover number divided by the Michaelis constant. Consider BglMKg (uncultured bacterium), for which, in series [1], the Km turned out to be 0.16 ± 0.03 mM, the kcat turned out to be 11.7 ± 0.26 s⁻¹ and the kcat/Km stood at 73400 M⁻¹ s⁻¹. Further, in series [2], the Km is given as 9.04 ± 1.39 mM, the kcat turned out to be 12.4 ± 1.35 s⁻¹ and the catalytic efficiency (kcat/Km) turned out to be 1370 M⁻¹ s⁻¹.

For the origin of these results see article PMC3605331, “Cloning and characterization of a novel cold-active glycoside hydrolase family 1 enzyme with β-glucosidase, β-fucosidase and β-galactosidase activities” (BMC Biotechnology, 2013).
